# Experimental data published in patent US20110142868A1 (CHIRALIX B V, published 2011).
# Numbered stars: 1 amine (or outer) side, 2 acyl side, 3 side chain; on linkers, the order of the positions; unused ones are H or OH. Square brackets hold non-standard residues; d marks the D form. * marks the point of attachment. Orn(CA) = ornithine chloroamidine, O(CA), N=C(CCl)NCCC[C@H](N[*:1])C(=O)[*:2]; Orn(fluoroacetimidoyl) = N=C(CF)NCCC[C@H](N)C(=O)O; 2Naphthylsulfonyl = O=S(=O)(c1ccc2ccccc2c1)*; AEEA = NCCOCCOCC(=O)O
# B1: 0741-02FA (peptide)
# peptide: Ac-FFDSHKWH[Orn(fluoroacetimidoyl)]DFFYSD-NH2
# SMILES: CC(=O)N[C@@H](Cc1ccccc1)C(=O)N[C@@H](Cc1ccccc1)C(=O)N[C@@H](CC(=O)O)C(=O)N[C@@H](CO)C(=O)N[C@@H](Cc1c[nH]cn1)C(=O)N[C@@H](CCCCN)C(=O)N[C@@H](Cc1c[nH]c2ccccc12)C(=O)N[C@@H](Cc1c[nH]cn1)C(=O)N[C@@H](CCCNC(=N)CF)C(=O)N[C@@H](CC(=O)O)C(=O)N[C@@H](Cc1ccccc1)C(=O)N[C@@H](Cc1ccccc1)C(=O)N[C@@H](Cc1ccc(O)cc1)C(=O)N[C@@H](CO)C(=O)N[C@@H](CC(=O)O)C(N)=O
# B2: 0741-06CA (peptide)
# peptide: Ac-DSKKHD[Orn(CA)]DFLYSD-NH2
# SMILES: CC(=O)N[C@@H](CC(=O)O)C(=O)N[C@@H](CO)C(=O)N[C@@H](CCCCN)C(=O)N[C@@H](CCCCN)C(=O)N[C@@H](Cc1c[nH]cn1)C(=O)N[C@@H](CC(=O)O)C(=O)N[C@@H](CCCNC(=N)CCl)C(=O)N[C@@H](CC(=O)O)C(=O)N[C@@H](Cc1ccccc1)C(=O)N[C@@H](CC(C)C)C(=O)N[C@@H](Cc1ccc(O)cc1)C(=O)N[C@@H](CO)C(=O)N[C@@H](CC(=O)O)C(N)=O
# B3: 0741-03FA (peptide)
# peptide: Ac-FFDSHKFD[Orn(fluoroacetimidoyl)]DFIYSD-NH2
# SMILES: CC[C@H](C)[C@H](NC(=O)[C@H](Cc1ccccc1)NC(=O)[C@H](CC(=O)O)NC(=O)[C@H](CCCNC(=N)CF)NC(=O)[C@H](CC(=O)O)NC(=O)[C@H](Cc1ccccc1)NC(=O)[C@H](CCCCN)NC(=O)[C@H](Cc1c[nH]cn1)NC(=O)[C@H](CO)NC(=O)[C@H](CC(=O)O)NC(=O)[C@H](Cc1ccccc1)NC(=O)[C@H](Cc1ccccc1)NC(C)=O)C(=O)N[C@@H](Cc1ccc(O)cc1)C(=O)N[C@@H](CO)C(=O)N[C@@H](CC(=O)O)C(N)=O
# B4: 0741-05CA (peptide)
# peptide: Ac-DSHKFD[Orn(CA)]DFIYSD-NH2
# SMILES: CC[C@H](C)[C@H](NC(=O)[C@H](Cc1ccccc1)NC(=O)[C@H](CC(=O)O)NC(=O)[C@H](CCCNC(=N)CCl)NC(=O)[C@H](CC(=O)O)NC(=O)[C@H](Cc1ccccc1)NC(=O)[C@H](CCCCN)NC(=O)[C@H](Cc1c[nH]cn1)NC(=O)[C@H](CO)NC(=O)[C@H](CC(=O)O)NC(C)=O)C(=O)N[C@@H](Cc1ccc(O)cc1)C(=O)N[C@@H](CO)C(=O)N[C@@H](CC(=O)O)C(N)=O
# B5: 0837-13FA (peptide)
# peptide: Ac-KFD[Orn(fluoroacetimidoyl)]DFI[AEEA]-NH2
# SMILES: CC[C@H](C)[C@H](NC(=O)[C@H](Cc1ccccc1)NC(=O)[C@H](CC(=O)O)NC(=O)[C@H](CCCNC(=N)CF)NC(=O)[C@H](CC(=O)O)NC(=O)[C@H](Cc1ccccc1)NC(=O)[C@H](CCCCN)NC(C)=O)C(=O)NCCOCCOCC(N)=O
# B6: 0837-14FA (peptide)
# peptide: Ac-KWH[Orn(fluoroacetimidoyl)]DFF[AEEA]-NH2
# SMILES: CC(=O)N[C@@H](CCCCN)C(=O)N[C@@H](Cc1c[nH]c2ccccc12)C(=O)N[C@@H](Cc1c[nH]cn1)C(=O)N[C@@H](CCCNC(=N)CF)C(=O)N[C@@H](CC(=O)O)C(=O)N[C@@H](Cc1ccccc1)C(=O)N[C@@H](Cc1ccccc1)C(=O)NCCOCCOCC(N)=O
# B7: 0837-30FA (peptide)
# peptide: 2Naphthylsulfonyl-KWH[Orn(fluoroacetimidoyl)]DFF-NH2
# SMILES: N=C(CF)NCCC[C@H](NC(=O)[C@H](Cc1c[nH]cn1)NC(=O)[C@H](Cc1c[nH]c2ccccc12)NC(=O)[C@H](CCCCN)NS(=O)(=O)c1ccc2ccccc2c1)C(=O)N[C@@H](CC(=O)O)C(=O)N[C@@H](Cc1ccccc1)C(=O)N[C@@H](Cc1ccccc1)C(N)=O
# B8: 0837-28FA (peptide)
# peptide: 2Naphthylsulfonyl-KWH[Orn(fluoroacetimidoyl)]DFF[AEEA]-NH2
# SMILES: N=C(CF)NCCC[C@H](NC(=O)[C@H](Cc1c[nH]cn1)NC(=O)[C@H](Cc1c[nH]c2ccccc12)NC(=O)[C@H](CCCCN)NS(=O)(=O)c1ccc2ccccc2c1)C(=O)N[C@@H](CC(=O)O)C(=O)N[C@@H](Cc1ccccc1)C(=O)N[C@@H](Cc1ccccc1)C(=O)NCCOCCOCC(N)=O
# B9: 0837-27FA (peptide)
# peptide: 2Naphthylsulfonyl-KFD[Orn(fluoroacetimidoyl)]DFI[AEEA]-NH2
# SMILES: CC[C@H](C)[C@H](NC(=O)[C@H](Cc1ccccc1)NC(=O)[C@H](CC(=O)O)NC(=O)[C@H](CCCNC(=N)CF)NC(=O)[C@H](CC(=O)O)NC(=O)[C@H](Cc1ccccc1)NC(=O)[C@H](CCCCN)NS(=O)(=O)c1ccc2ccccc2c1)C(=O)NCCOCCOCC(N)=O
# B10: 0748-25FA (peptide)
# peptide: Ac-KHD[Orn(fluoroacetimidoyl)]DFL-NH2
# SMILES: CC(=O)N[C@@H](CCCCN)C(=O)N[C@@H](Cc1c[nH]cn1)C(=O)N[C@@H](CC(=O)O)C(=O)N[C@@H](CCCNC(=N)CF)C(=O)N[C@@H](CC(=O)O)C(=O)N[C@@H](Cc1ccccc1)C(=O)N[C@@H](CC(C)C)C(N)=O
# B11: 0748-01FA (peptide)
# peptide: Ac-HFD[Orn(fluoroacetimidoyl)]EWI-NH2
# SMILES: CC[C@H](C)[C@H](NC(=O)[C@H](Cc1c[nH]c2ccccc12)NC(=O)[C@H](CCC(=O)O)NC(=O)[C@H](CCCNC(=N)CF)NC(=O)[C@H](CC(=O)O)NC(=O)[C@H](Cc1ccccc1)NC(=O)[C@H](Cc1c[nH]cn1)NC(C)=O)C(N)=O
# Biological target: T1, recombinant human PAD2 (human, UniProt Q9Y2J8 1-665)
# T1 sequence (Q9Y2J8 whole entry): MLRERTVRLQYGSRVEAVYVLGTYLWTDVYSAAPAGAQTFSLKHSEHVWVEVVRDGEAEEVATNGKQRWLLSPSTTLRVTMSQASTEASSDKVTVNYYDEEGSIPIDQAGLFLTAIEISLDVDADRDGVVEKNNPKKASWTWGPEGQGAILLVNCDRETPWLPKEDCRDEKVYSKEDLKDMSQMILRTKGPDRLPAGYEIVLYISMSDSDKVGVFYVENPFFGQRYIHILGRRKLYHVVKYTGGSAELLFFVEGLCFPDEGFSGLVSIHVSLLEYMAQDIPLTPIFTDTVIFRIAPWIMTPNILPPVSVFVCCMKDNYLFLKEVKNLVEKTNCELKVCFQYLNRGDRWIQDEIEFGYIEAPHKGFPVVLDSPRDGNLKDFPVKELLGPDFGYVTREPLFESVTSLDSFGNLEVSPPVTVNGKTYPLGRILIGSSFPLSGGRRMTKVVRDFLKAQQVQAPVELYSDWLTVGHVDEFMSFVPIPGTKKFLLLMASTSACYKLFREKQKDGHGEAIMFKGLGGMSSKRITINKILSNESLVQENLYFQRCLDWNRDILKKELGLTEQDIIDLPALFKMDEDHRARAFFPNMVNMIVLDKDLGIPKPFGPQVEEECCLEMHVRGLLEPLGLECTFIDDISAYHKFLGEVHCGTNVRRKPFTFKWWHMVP
# Experiment: cell-based or functional assay
"conversion of 0708-30 by PAD2, 10 µM inhibitor [%]","conversion of 0708-30 by PAD2, 50 µM inhibitor [%]","conversion of 0708-30 by PAD2, 100 µM inhibitor [%]",Binder
52,17,7,B1
63,45,48,B2
39,13,6,B3
62,44,31,B4

# Biological target: T2, recombinant human PAD4 (human, UniProt Q9UM07 1-663)
# T2 sequence (Q9UM07 whole entry): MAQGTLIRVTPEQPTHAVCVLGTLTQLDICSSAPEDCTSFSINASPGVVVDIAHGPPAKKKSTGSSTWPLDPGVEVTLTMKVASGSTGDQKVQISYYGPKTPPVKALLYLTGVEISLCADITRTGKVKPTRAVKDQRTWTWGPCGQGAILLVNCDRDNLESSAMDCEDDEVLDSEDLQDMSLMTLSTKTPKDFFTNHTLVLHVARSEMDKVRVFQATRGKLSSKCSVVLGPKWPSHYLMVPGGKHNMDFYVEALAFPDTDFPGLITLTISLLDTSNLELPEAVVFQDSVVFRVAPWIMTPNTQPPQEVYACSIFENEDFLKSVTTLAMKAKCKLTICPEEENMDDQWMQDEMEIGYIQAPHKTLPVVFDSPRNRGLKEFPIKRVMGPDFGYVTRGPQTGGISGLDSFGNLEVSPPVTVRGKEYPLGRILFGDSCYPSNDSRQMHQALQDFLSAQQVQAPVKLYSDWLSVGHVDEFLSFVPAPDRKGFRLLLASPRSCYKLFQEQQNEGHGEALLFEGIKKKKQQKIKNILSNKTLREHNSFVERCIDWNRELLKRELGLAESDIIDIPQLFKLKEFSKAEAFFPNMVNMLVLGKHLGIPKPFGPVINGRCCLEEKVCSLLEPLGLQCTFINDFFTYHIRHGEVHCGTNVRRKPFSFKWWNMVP
# Experiment: cell-based or functional assay
Inhibition of PAD4: value at 10 µM inhibitor (0 µM: 71) [%],Inhibition of PAD4: value at 20 µM inhibitor (0 µM: 71) [%],Inhibition of PAD4: value at 40 µM inhibitor (0 µM: 71) [%],Inhibition of PAD4: value at 80 µM inhibitor (0 µM: 71) [%],Inhibition of PAD4: value at 10 µM inhibitor (0 µM: 67) [%],Inhibition of PAD4: value at 20 µM inhibitor (0 µM: 67) [%],Inhibition of PAD4: value at 40 µM inhibitor (0 µM: 67) [%],Inhibition of PAD4: value at 80 µM inhibitor (0 µM: 67) [%],Binder
48,33,23,16,,,,,B5
,,,,54,39,29,21,B6
,,,,37,24,13,7,B7
,,,,37,23,17,9,B8
35,20,12,7,,,,,B9
33,16,10,5,,,,,2Naphthylsulfonyl-KFD[Orn(fluoroacetimidoyl)]DFI-NH2 [0837-29FA]

# Biological target: T1, recombinant human PAD2
# Experiment: cell-based or functional assay
# Remark: another data set of the same source
"conversion of 0708-30 by PAD2, 10 µM inhibitor (0 µM: 68) [%]","conversion of 0708-30 by PAD2, 50 µM inhibitor (0 µM: 68) [%]","conversion of 0708-30 by PAD2, 100 µM inhibitor (0 µM: 68) [%]",Binder
47,20,11,B10
67,36,21,B11

# Biological target: T2, recombinant human PAD4
# Experiment: cell-based or functional assay
# Remark: another data set of the same source
"conversion of 0708-30 by PAD4, 10 µM inhibitor (0 µM: 81) [%]","conversion of 0708-30 by PAD4, 50 µM inhibitor (0 µM: 81) [%]","conversion of 0708-30 by PAD4, 100 µM inhibitor (0 µM: 81) [%]",Binder
45,18,12,B10
50,25,12,B11

# Biological target: T1, recombinant human PAD2
# Experiment: cell-based or functional assay
# Remark: another data set of the same source
Inhibition of PAD2: value at 10 µM inhibitor (0 µM: 74) [%],Inhibition of PAD2: value at 20 µM inhibitor (0 µM: 74) [%],Inhibition of PAD2: value at 40 µM inhibitor (0 µM: 74) [%],Inhibition of PAD2: value at 80 µM inhibitor (0 µM: 74) [%],Inhibition of PAD2: value at 10 µM inhibitor (0 µM: 76) [%],Inhibition of PAD2: value at 20 µM inhibitor (0 µM: 76) [%],Inhibition of PAD2: value at 40 µM inhibitor (0 µM: 76) [%],Inhibition of PAD2: value at 80 µM inhibitor (0 µM: 76) [%],Binder
43,30,20,11,,,,,B5
,,,,38,24,14,8,B6
,,,,9,3,2,1,B7
,,,,17,8,4,2,B8
24,14,7,4,,,,,B9
16,9,5,2,,,,,2Naphthylsulfonyl-KFD[Orn(fluoroacetimidoyl)]DFI-NH2 [0837-29FA]

# Biological target: T2, recombinant human PAD4
# Experiment: cell-based or functional assay
# Remark: another data set of the same source
"conversion of 0708-30 by PAD4, 10 µM inhibitor [%]","conversion of 0708-30 by PAD4, 50 µM inhibitor [%]","conversion of 0708-30 by PAD4, 100 µM inhibitor [%]",Binder
50,20,16,B1
74,64,50,B2
45,12,9,B3
74,34,25,B4
